Experimental data: patent publication US20130273029A1 (Novartis, published 2013)
Positions count from the first letter of the chain named. Where two headings read alike, the source gives them in different places.

B1: MOR12616 (antibody, human IgG1, kappa, V domains shown)
VH: QVQLVQSGAEVKKPGESLKISCKGSGYSFTNSWVAWVRQMPGKGLEWMGIIYPGNSDTIYSPSFQGQVTISADKSISTAYLQWSSLKASDTAMYYCARVHIIQPPSAWSYNAMDVWGQGTLVTVSS
VL: DIQMTQSPSSLSASVGDRVTITCRASQSISTYLNWYQQKPGKAPKLLIFGASNLQSGVPSRFSGSGSGTDFTLTISSLQPEDFATYYCQQSITELFTFGQGTKVEIKR
notes: tested as IgG
B2: MOR12925 (antibody, human IgG1, kappa, V domains shown)
VH: B1 VH with T30S, S32Y, V34I
VL: B1 VL
notes: tested as IgG
B3: MOR13768 (antibody, human IgG1, kappa, V domains shown)
VH: B1 VH with N31S, N55Q
VL: B1 VL
notes: tested as IgG
B4: MOR14535 (antibody, human IgG1, kappa, V domains shown)
VH: B1 VH with Q1E, N31T, S32T, N55L
VL: B1 VL with F49Y
notes: tested as IgG
B5: MOR14536 (antibody, human IgG1, kappa, V domains shown)
VH: B1 VH with Q1E, T30S, S32Y, V34I, N55Q
VL: B1 VL with F49Y
notes: tested as IgG

Assays:
[1] = target: T1, Human HER3, endogenous, on human cancer cell lines (SK-Br-3, MCF7, BT-474) (human, UniProt P21860 20-1342); assay: cell-based or functional assay
[2] = target: T1, Human HER3, endogenous, on human cancer …; assay: cell-based or functional assay; remark: listed apart in the source
[3] = target: T1, Human HER3, endogenous, on human cancer …; assay: cell-based or functional assay; remark: listed apart in the source
[4] = target: T2, HER3 D2: CD33-[Human HER3, residues 185-329]-TAG (human, UniProt P21860 185-329); assay: ELISA on coated recombinant protein, antibody titrated (Example 7); readout on the sheet is Fluorescence Units
T2 construct: also called D2-Tag; isolated D2 protein; not shown: C-terminal TAG (e.g., FLAG TAG)

[5] = target: T3, HER3 D4: CD33-[Human HER3, residues 496-643]-TAG (human, UniProt P21860 496-643); assay: as above
T3 construct: also called D4-Tag; isolated domain 4; not shown: C-terminal TAG (e.g., FLAG TAG)

[6] = target: T4, HER3 D3-4: CD33-[Human HER3, residues 330-643]-TAG (human, UniProt P21860 330-643); assay: as above
T4 construct: also called D3-4-Tag; isolated domains 3-4; not shown: C-terminal TAG (e.g., FLAG TAG)

[7] = target: T5, Hu HER3: CD33-[Human HER3, residues 20-640]-TAG (human, UniProt P21860 20-640); assay: binding ELISA on human HER3 (WT), IgG titrated (Example 7); fluorescence 435/530 nm
T5 construct: also called hu HER3-Tag; HER3-Tag; not shown: C-terminal TAG (e.g., FLAG TAG)

[8] = target: T6, Rat HER3: CD33-[Rat HER3, residues 20-643]-TAG (rat, UniProt Q62799 20-643); assay: SET, IgG vs soluble HER3-Tag
T6 construct: also called ra HER3-Tag; not shown: C-terminal TAG (e.g., FLAG TAG)
Experimental: (§1) Affinity determination in solution was essentially performed as previously described (Friguet et al., (1985) J Immunol Methods 77:305-19). In order to improve the sensitivity and accuracy of the SET method, it was transferred from classical ELISA to ECL based technology (Haenel et al., (2005) Anal Biochem 339:182-84).
(§2) The data was evaluated with XLfit software (ID Business Solutions) applying customized fitting models.
(§3) Antibody affinity was determined by solution equilibrium titration (SET) as described above. The results are summarized in Table 3 and example titration curves for MOR12616 and MOR12925 are contained in FIG. 1.

[9] = target: T7, Cyno HER3: CD33-[Cyno HER3, residues 20-643]-TAG (cynomolgus, UniProt G7PIG5 20-643); assay: SET, IgG vs soluble HER3-Tag
T7 construct: also called cy HER3-Tag; not shown: C-terminal TAG (e.g., FLAG TAG)
Experimental: as §1, §2, §3

[10] = target: T8, Mu HER3: CD33-[Murine HER3, residues 20-643]-TAG (murine, UniProt Q61526 20-643); assay: SET, IgG vs soluble HER3-Tag
T8 construct: also called mu HER3-Tag; not shown: C-terminal TAG (e.g., FLAG TAG)
Experimental: as §1, §2, §3

[11] = target: T5, Hu HER3: CD33-[Human HER3, residues …; assay: SET, IgG vs soluble HER3-Tag
Experimental: as §1, §2, §3

[12] = target: T2, HER3 D2: CD33-[Human HER3, residues …; assay: ELISA on coated recombinant protein, antibody titrated (Example 7); readout on the sheet is Fluorescence Units; remark: listed apart in the source
[13] = target: T3, HER3 D4: CD33-[Human HER3, residues …; assay: as above; remark: listed apart in the source
[14] = target: T4, HER3 D3-4: CD33-[Human HER3, residues …; assay: as above; remark: listed apart in the source
[15] = target: T9, HER3 K267A: CD33-[Human HER3, residues 20-640, K267A]-TAG (human, UniProt P21860 20-640); assay: SET, IgG vs mutant HER3
T9 construct: also called HER3 K267A-Tag; not shown: C-terminal TAG (e.g., FLAG TAG)

[16] = target: T5, Hu HER3: CD33-[Human HER3, residues …; assay: SET, IgG vs HER3 ECD
Experimental: as §1, §2, §3

[17] = target: T10, HER3 K267A/L268A: CD33-[Human HER3, residues 20-640, K267A/L268A]-TAG (human, UniProt P21860 20-640); assay: SET
T10 construct: not shown: C-terminal TAG (e.g., FLAG TAG)

[18] = target: T11, HER3 L268A: CD33-[Human HER3, residues 20-640, L268A]-TAG (human, UniProt P21860 20-640); assay: SET
T11 construct: also called HER3 L268A-Tag; human mutant HER3 (L268A); not shown: C-terminal TAG (e.g., FLAG TAG)

HER3 on JTC12 cells = target: T12, HER3 on JTC12 cells; assay: FACS titration on JTC12 cells
T12 construct: whole, on cells

HER3 on B16-F10 cells = target: T13, HER3 on B16-F10 cells (UniProt Q61526 20-1339); assay: FACS titration on B16-F10 cells
T13 construct: whole, on cells

[19] = target: T1, Human HER3, endogenous, on human cancer …; assay: FACS titration on SK-Br-3 cells
Experimental: The binding of antibodies to endogenous human antigen expressed on human cancer cells was accessed by FACS. In order to determine antibody EC₅₀ values SK-Br-3 cells were harvested with accutase and diluted to 1×10⁶ cells/mL in FACS buffer (PBS/3% FBS/0.2% NaN₃). 1×10⁵ cells/well were added to each well of a 96-well plate (Nunc) and centrifuged at 210 g for 5 minutes at 4° C. before removing the supernatant. Serial dilutions of test antibodies (diluted in 1:4 dilution steps with FACS buffer) were added to the pelleted cells and incubated for 1 hour on ice. The cells were washed and pelleted three times with 100 μL FACS buffer. PE conjugated goat anti-human IgG (Jackson ImmunoResearch) diluted 1/200 with FACS buffer were added to the cells and incubated on ice for 1 hour. Additional washing steps were performed three times with 100 μL FACS buffer followed by centrifugation steps at 210 g for 5 minutes at 4° C. Finally, cells were resuspended in 200 μL FACS buffer and fluorescence values were measured with a FACSArray (BD Biosciences). The amount of cell surface bound anti-HER3 antibody was assessed by measuring the mean channel fluorescence.
The ability of the identified antibodies to bind HER3 expressing cells was determined by calculating EC₅₀ values for their binding to the HER2 amplified cell line SK-Br-3 (see FIG. 2 and Table 4).

T1 sequence (P21860 20-1342): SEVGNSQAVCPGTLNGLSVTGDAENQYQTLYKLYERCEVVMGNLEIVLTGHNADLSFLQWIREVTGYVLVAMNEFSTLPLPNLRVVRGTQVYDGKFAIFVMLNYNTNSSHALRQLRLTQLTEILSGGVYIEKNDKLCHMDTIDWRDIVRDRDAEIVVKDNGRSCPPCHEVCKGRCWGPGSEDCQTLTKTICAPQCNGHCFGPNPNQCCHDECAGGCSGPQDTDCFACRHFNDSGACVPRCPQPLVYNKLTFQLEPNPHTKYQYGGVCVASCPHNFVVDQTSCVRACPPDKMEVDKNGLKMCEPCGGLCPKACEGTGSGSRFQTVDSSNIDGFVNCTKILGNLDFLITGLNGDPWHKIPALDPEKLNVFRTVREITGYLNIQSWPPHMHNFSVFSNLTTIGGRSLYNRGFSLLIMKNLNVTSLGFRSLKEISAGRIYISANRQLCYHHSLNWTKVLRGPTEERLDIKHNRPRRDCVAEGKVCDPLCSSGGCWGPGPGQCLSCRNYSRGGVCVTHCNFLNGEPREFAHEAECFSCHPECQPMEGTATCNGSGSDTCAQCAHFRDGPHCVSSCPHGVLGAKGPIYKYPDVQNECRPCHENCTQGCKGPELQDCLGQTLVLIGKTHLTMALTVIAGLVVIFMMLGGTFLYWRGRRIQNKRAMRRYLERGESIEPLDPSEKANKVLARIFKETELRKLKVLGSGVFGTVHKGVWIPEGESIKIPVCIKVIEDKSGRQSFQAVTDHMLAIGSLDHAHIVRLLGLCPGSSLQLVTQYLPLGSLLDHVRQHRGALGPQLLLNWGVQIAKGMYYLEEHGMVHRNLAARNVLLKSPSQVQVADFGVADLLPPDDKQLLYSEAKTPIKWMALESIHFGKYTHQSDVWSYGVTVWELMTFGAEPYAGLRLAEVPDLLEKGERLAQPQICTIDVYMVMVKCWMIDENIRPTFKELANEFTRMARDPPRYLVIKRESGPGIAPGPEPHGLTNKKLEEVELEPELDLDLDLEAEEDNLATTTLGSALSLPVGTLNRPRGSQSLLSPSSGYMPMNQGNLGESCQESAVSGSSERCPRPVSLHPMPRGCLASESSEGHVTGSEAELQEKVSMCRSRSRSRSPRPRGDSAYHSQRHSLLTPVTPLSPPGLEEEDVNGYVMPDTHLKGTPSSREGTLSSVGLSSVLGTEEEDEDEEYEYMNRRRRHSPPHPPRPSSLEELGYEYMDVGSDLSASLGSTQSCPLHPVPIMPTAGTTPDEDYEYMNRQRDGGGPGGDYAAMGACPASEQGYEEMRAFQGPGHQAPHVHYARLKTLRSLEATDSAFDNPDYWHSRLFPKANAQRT
T7 sequence (G7PIG5 entry or part of it): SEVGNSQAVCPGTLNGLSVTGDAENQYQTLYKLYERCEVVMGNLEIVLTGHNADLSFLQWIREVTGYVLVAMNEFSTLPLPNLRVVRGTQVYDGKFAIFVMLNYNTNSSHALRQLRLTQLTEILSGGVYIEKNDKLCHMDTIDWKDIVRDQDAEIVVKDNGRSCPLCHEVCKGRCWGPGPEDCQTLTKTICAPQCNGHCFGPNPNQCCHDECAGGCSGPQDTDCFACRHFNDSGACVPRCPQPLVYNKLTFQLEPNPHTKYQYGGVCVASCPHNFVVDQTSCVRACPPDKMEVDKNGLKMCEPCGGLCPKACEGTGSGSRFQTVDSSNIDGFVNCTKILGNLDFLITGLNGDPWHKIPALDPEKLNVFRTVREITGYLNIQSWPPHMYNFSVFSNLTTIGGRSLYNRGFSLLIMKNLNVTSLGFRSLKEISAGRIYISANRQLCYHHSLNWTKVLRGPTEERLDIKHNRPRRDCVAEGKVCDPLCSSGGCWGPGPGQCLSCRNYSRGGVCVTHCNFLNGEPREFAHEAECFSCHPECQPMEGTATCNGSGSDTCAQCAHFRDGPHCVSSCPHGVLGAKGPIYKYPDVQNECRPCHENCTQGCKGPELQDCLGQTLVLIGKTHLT
T6 sequence (Q62799 20-643): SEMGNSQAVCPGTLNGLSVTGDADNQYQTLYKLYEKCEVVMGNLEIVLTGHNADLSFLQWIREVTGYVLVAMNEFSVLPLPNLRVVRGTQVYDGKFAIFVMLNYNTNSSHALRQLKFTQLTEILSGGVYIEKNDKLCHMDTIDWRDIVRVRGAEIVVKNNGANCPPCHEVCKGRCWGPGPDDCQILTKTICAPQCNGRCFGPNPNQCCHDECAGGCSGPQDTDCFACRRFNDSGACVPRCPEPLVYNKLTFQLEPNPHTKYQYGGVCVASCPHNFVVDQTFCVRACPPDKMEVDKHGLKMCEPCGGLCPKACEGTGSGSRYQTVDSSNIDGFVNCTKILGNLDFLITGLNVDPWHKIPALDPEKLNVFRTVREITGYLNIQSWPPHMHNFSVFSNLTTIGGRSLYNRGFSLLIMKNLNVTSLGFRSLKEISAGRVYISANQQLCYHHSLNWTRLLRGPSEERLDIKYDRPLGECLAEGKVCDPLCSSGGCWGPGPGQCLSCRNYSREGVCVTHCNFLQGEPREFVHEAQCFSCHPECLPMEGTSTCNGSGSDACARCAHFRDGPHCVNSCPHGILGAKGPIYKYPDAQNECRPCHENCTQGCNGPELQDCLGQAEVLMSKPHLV
T5 sequence (P21860 20-640): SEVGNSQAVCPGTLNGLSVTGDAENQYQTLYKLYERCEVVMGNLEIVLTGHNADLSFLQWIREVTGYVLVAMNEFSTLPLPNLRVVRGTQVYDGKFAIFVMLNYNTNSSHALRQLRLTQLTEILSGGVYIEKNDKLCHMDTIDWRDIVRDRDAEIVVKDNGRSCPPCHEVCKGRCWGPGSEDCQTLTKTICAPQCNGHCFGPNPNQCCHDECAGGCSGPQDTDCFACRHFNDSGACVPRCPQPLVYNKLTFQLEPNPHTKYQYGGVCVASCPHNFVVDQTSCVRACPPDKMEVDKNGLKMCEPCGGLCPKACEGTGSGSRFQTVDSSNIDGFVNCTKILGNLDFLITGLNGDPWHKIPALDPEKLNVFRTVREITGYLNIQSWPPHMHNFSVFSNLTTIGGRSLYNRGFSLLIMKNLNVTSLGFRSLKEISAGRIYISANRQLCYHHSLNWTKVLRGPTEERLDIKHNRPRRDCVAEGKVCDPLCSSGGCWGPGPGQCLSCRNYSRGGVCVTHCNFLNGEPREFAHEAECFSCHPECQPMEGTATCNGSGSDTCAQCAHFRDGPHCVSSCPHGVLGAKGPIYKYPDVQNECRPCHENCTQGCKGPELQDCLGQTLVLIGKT
T8 sequence (Q61526 20-643): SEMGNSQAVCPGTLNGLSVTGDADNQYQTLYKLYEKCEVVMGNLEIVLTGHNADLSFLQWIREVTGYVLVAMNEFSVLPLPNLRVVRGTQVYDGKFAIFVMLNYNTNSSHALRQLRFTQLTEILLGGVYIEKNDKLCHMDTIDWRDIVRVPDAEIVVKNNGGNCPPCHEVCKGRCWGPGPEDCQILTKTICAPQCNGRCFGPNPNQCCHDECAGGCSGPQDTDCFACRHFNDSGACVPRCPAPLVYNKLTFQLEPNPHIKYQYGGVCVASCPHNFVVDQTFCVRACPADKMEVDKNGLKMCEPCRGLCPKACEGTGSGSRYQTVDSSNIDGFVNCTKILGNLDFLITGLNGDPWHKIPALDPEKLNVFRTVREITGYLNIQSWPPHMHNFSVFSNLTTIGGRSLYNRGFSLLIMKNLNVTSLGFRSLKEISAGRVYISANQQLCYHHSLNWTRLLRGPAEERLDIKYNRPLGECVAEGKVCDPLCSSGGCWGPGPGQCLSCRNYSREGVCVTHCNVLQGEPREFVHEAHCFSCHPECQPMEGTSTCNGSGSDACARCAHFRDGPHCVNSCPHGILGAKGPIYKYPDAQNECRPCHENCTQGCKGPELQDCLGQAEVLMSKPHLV
T3 sequence (P21860 496-643): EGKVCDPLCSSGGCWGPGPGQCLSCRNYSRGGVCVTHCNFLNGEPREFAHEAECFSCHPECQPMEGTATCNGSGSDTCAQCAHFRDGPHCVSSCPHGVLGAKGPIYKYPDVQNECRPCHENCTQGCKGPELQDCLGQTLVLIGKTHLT
T2 sequence (P21860 185-329): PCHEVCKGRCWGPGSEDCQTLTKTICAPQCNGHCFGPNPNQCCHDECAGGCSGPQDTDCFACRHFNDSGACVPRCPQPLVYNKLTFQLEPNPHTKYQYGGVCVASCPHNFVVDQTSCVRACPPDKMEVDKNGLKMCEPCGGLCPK
T4 sequence (P21860 330-643): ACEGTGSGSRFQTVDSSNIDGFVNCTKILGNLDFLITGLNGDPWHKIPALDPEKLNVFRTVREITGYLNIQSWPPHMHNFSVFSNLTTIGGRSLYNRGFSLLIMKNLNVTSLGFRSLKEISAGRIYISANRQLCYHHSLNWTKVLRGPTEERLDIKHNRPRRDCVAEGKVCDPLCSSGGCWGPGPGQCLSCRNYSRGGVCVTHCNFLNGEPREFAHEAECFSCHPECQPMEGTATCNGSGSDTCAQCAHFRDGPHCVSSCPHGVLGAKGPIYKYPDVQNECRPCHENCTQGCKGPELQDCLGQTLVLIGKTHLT
T11 sequence (P21860 20-640 L268A): as the sequence (P21860 20-640) above, with L249A counted along it
T9 sequence (P21860 20-640 K267A): as the sequence (P21860 20-640) above, with K248A counted along it
T10 sequence (P21860 20-640 K267A/L268A): as the sequence (P21860 20-640) above, with K248A, L249A counted along it

BT-474 proliferation % inhibition [1] [%]	BT-474 proliferation IC50 [1] [nM]	MCF7 proliferation % inhibition [1] [%]	SK-Br-3 proliferation % inhibition [1] [%]	SK-Br-3 proliferation IC50 [1] [nM]	BT-474 pAkt (S473) % inhibition [2] [%]	BT-474 pAkt (S473) IC50 [2] [pM]	MCF7 pAkt (S473) % inhibition [2] [%]	MCF7 pAkt (S473) IC50 [2] [pM]	SK-Br-3 pAkt (S473) % inhibition [2] [%]	SK-Br-3 pAkt (S473) IC50 [2] [pM]	BT474 pHER3 % inhibition [3] [%]	MCF7 pHER3 % inhibition [3] [%]	MCF7 pHER3 IC50 [3] [pM]	SK-Br-3 pHER3 % inhibition [3] [%]	SK-Br-3 pHER3 IC50 [3] [pM]	Kd [8] [nM]	Kd [9] [nM]	Kd [10] [nM]	Kd [11] [nM]	other results	Binder
45	0.635	32	48	0.123	78	316	80	442	89	88	58	76	245	75	142	0.122	0.074	0.041	0.02	MCF7 proliferation IC50 [1]: 0.415 nM; BT474 pHER3 IC50 [3]: 436 pM; EC50 (read off the curve) [4]: ~0.2 µg/mL; binding result [5]: no binding (tested: 10 µg/ml); binding result [6]: no binding (tested: 10 µg/ml); EC50 (read off the curve) [7]: ~0.1 nM	B1
47	0.522	47	40	0.101	80	255	82	295	88	93	63	81	327	75	136	0.1	0.074	0.038	0.028	EC50 (read off the curve) [12]: ~0.1 µg/mL; binding result [13]: no binding (tested: 10 µg/ml); binding result [14]: no binding (tested: 10 µg/ml); MCF7 proliferation IC50 [1]: 0.604 nM; BT474 pHER3 IC50 [3]: 2160 pM; EC50 (read off the curve) [7]: ~0.1 nM	B2
43	1.21	58	43	0.198	81	466	73	347	94	105	70	75	412	81	139				0.037	Kd [15]: 0.099 nM; Kd [16]: 0.037 nM; BT474 pHER3 IC50 [3]: 437 pM; binding result [17]: no binding; binding result [18]: no binding	B3
			66	0.271								73	533	76	231	0.315	0.215	0.125	0.235	EC50 (HER3 on JTC12 cells): 65.1 nM; EC50 (HER3 on B16-F10 cells): 0.524 nM; EC50 [19]: 2.08 nM	B4
			56	0.181								83	379	76	239	0.064	0.044	0.029	0.072	EC50 (HER3 on JTC12 cells): 1.36 nM; EC50 (HER3 on B16-F10 cells): 0.625 nM; EC50 [19]: 1.27 nM	B5
